Like-named read-outs stand apart in the source and are kept apart here.
B1: EcMinEΔN (residues 32-88 of EcMinE) (domain or fragment, E. coli, UniProt P0A734 32-88, looked up)
chain: SDAEPHYLPQLRKDILEVICKYVQIDPEMVTVQLEQKDGDISILELNVTLPEAEELK
B2: full-length Helicobacter pylori MinE (natural protein, UniProt O25099 1-77, looked up)
chain: MSLFDFFKNKGSAATATDRLKLILAKERTLNLPYMEEMRKEIIAVIQKYTKSSDIHFKTLDSNQSVETIEVEIILPR
B3: Selenomethionine (Se-Met)-labelled HpMinE (natural protein, Helicobacter pylori, UniProt O25099 1-77, looked up)
chain: B2 chain
modifications: selenomethionine (Se-Met-labelled)

What was measured:
[1] = target: the molecule itself; test: SEC
[2] = target: the molecule itself; test: SEC; remark: listed apart in the source
[3] = target: the molecule itself; test: crystal structure

Protein	stoichiometry N [1]	further results
B1	4	–
B2	–	stoichiometry N [2]: 2
B3	–	binding result [3]: binds
TLNLPYMEEMRKEIIAVIQKYTKSSDIHFKTLDSNQSVETIEVEIILPR (domain or fragment, Helicobacter pylori, UniProt O25099 29-77, looked up) [HpMinEΔN (residues 29-77 of HpMinE)]	3	–
